Among the data in a protein production outcome set (Wang et al. 2014) are protein production values, retold here.

The data set is described as follows: label from the status in PepcDB records.
For the sequence “MTLATRTVILPGGLQATLVHQPQADRAAALARVAAGSHHEPSRFPGLAHLLEHLLFYGGERYQDDDRLMGWVQRQGGSVNATTLARHSAFFFEVAADALADGVARLQEMLQAPLLLREDIQREVAVIDAEYRLIQQHEPSRREAAVRHAASAPAAFRRFQVGSADALAGDLAALQAALGDFHRTHYVARRMQLWLQGPQSLEALGELAARFAAGLAAGEPPPPAPPLRLGEFTALQLAVSSQPALWRCPLIALSDNVTLLREFLLDEAPGSLMASLRQRRLAGDVALNWLYQDRYLGWLALVFASDRPEEVDRQITHWLQALQQTTPEQQQHYYQLSRRRFQALSPLDQLRQRAFGFAPGAPPAGFADFCAALQAAPSVSLACQTVSPGEPVATQGFSLPLSRWRRRPESDPALAFAFYPQAAGDLVAKCPEKAAPLLHLPLPEEPPRLLLRPPFYCSPDQAEGLARGEQLRPLLAALRHAGGHGEWHLFDGSWQLTLQLPEPGRRPEAILQAILRQLALPVASLTPPPESIAIRHLMAQLPERLGTSGHQKGWLAALAGGSAEDAQWVARQLSLITAPVNPPMPAPAPCRRGVERLVYPGGDTALLVFIPLPDGASLAALRLLAQHCEPLFFQRLRVEQQIGYVVSCRYQRVADRDGLLMALQSPDRRAGELLRCGKDFLRQLAPMDEATFRPLQQRLAAQNRASRPPEARALSALRQEYGLPELTPQAVDALRVAEVADLAREMTRRRRRWQVLFTTGD”, the protein production entry is “failed”.

Take “MTLDPTPALSALRSGDFRTVQKLARRALKLAKGDPGWLNLAAIAESGLGRPKAALPHFQLALKLAPDFHDARRNLAQTLVILGRLDEAERHLQQLTGTNPQDAEAWALLSQAAMGRGDGDAALAAADRYVDLRPGQARGLMLRATLHGRLGDEAAALADLQQAQMAEPDNVDLLIALSLPLARADHPGAAIDVARRAVELAPRHIPARLTLAMRHVEQGDSDAAKAMYHRVLEIAPDQAEALEQLAHLNDAAENQRLAPQVQTALKTAEAGSLDKAQLHFALARIAAQSADDDGLARNLTRANATMARLMPYDAGADTRLSEALMARFAPGADCDGPGDGPAPFYVLGLPRSGTSLTEAVLGAHPVVHPLGERIAPGRLLAPLIDGGLPFDAQARAAFRKGEAASLPALPEGTRFYTDKMPENYRLVGFLLAARGDARVIHLRRDPRDVALSLWQAHLAGSALNYAYDLGAMAHRFNLYARMMAHWRAIFPDRILDLPYEELVADVTRASQRLAEWLGLVWDPEMARPERSTSQILTLSASQLRQPVHTRSVGKWRKHEAMLAPFIAGLDPGLWPELGQSGI”: the protein production entry is “failed”.

In the case of “MTLEIRPAVPADAEQILAFIIELADYERARHEVVTDVEGIRRSLFAEGSPTRALMCLSEGRPIGYAVYFYSYSTWLGRNGIYLEDLYVTPEYRGVGAGRRLLRELAREAVANDCGRLEWSVLDWNQPAIDFYRSIGALPQDEWVRYRLDGEALRKMAE”, the protein production result is “not failed”.

“MTLELLQAQAQNCTACRLMEGRTRVVFGEGNPDAKLMIVGEGPGEEEDKTGRPFVGKAGQLLNRILEAAGIPREEVYITNIVKCRPPQNRAPLPDEAKICTDKWLLKQIELIAPQIIVPLGAVAAEFFLGEKVSITKVRGKWYEWHGIKVFPMFHPAYLLRNPSRAPGSPKHLTWLDIQEVKRALDALPPKERRPVKAVSQEPLF”: the protein production result is listed as “not failed”.

In the case of “MTLGSQHSPLFALVQETLRKRILSGAYAQGERLVEGDLAEEMGVSRIPVREALRALAAAGLVRIEPRRGASVASLSPEHARDIVEVRATLEALNARLAAQRRNPQQVADMDRAIRDGAHACERGDTAALVEQNRHFHELLGGVSTNAVLQDLMRSLRDRTALLFARNSVTRAADILDEHAGILQAVTAGDADLASLLAARHVHNAAQWYFERPVDRKAVAADTD”, the protein production entry is on record as “failed”.

Take “MTLPQTMKAAVVHAYGAPLRIEEVKVPLPGPGQVLVKIEASGVCHTDLHAAEGDWPVKPPLPFIPGHEGVGYVAAVGSGVTRVKEGDRVGIPWLYTACGCCEHCLTGWETLCESQQNTGYSVNGGYAEYVLADPNYVGILPKNVEFAEIAPILCAGVTVYKGLKQTNARPGQWVAISGIGGLGHVAVQYARAMGLHVAAIDIDDAKLELARKLGASLTVNARQEDPVEVLQRDIGGAHGVLVTAVSNSAFGQAIGMARRGGTIALVGLPPGDFPTPIFDVVLKGLHIAGSIVGTRADLQEALDFAGEGLVKATIHPGKLDDINQILDQMRAGQIEGRIVLEM”: the protein production result was “not failed”.

As to “MTLSIAHLGPPGTYAEQAAVLYVNWLTKSTGDEATLSPYPTISQSLHAVADGQAHLAVVPVENSIEGSVTTTLDALWQLDSLRIQLALVLPIVHTLISCASGLDKIETVYSHPQALAQCQGWLERFLPTVQIVPSNSTTEALQRLEQETTTAAIASSRAAQLYNLPILATGINDYPENCTRFWVVSQGEADAGYQTSKVPTSHTSLAFSMPANTPGALVKPLQIFAQLGINLSRIESRPTKRSLGEYLFFMDLEADVKESQMQSALAELTIHTEILKILGAYNVLPIGAFT”, the protein production entry is reported as “failed”.

On to “MTLSSTTAPLDQPIPQATADAFCALTGDDQWIHIDPARAEAEGLAGGDTVLPGALLLSLAVGGLGKALGYPEGTRSWQRSYERVRFLRPAPVGSRLRLEARESRRRPAGTGREVVVANVSLYSDLVEAGPVMEGCFTSLLEVAVQPDTAE”, for which the protein production result was “failed”.

For “MTLSTINPMKKSRIDNIHHTQILFFSDENQIDQEAPYYDALLDLEKDYPEQIDKMKVYDKKEGWEDEIETVPTLMVVDQRHVVVKIEGCVKKKEDIIKPLQHVLSKLEHHHHHH”, the protein production result is given as “not failed”.

With “MTLTDISLAQAFISIPQDVIALDLSNNLLGSKSCVDLLVNIADCIPAGVTSLDLSSNGLRLTQVSLVTPKHVTSLNLCFNPLHEISIDGLEWLKDSLAHIQIIYLSYDMVNNMSREQRQAFRAVIPNIQTIILVDKNGKEIGPSHTAKIANLISELGGGNPEVPSLEHHHHHH”, the protein production result is “failed”.

Regarding “MTLTKITAGKDDPDTGFAIATYNIHSCLGTDGAFRPDRVAQAIRALDADVIGLQEVGWALRGPSGFDQFAFLERETGYTVIPGLVRHHANAHFGNAILSRHPVESVAPLDLSLPYHSPRGGIDARIRVKGRSVRLINVHLGLIPLERRIQIRRIGLRLLDGWRGPALVCGDLNHWRRTSPAMQRLHRLLPGGVTGQTYPSALPTMMFDRILATGDLHLENHQVIRTEGTRVASDHLPLMAWFRFEGADVLSEDAA”, the protein production entry is on record as “failed”.

Consider “MTMIKGYSEKVEKIYSKLRKTEEDNLKSRREEIKDKLPKIIKIDSEISRLCLKLSTNIFKKINNRDEYIKSLKNEITNLRMERSELLVSNGYPMDYLQMHYNCSKCKDTGYIGAHKCSCYKKYLVQLYYDNSDLKSLLNENNFENFNINYYSNRKSEDEPRTPRKNMEKILSLSLNYIKNFSDSNENLLFYGNSGTGKTFLSHCIAKDLLERGFLVIYKTSADLAQELKQLQFEPNPTLEDLIINCDLLIIDDLGTEQISAFSKTCFFNLINKKLLSQKKMLISSNYNLEELTRLYSERITSRLFGDFTLCKFYGDDIRINRNLKNKKI”, for which the protein production entry is on record as “failed”.

Regarding “MTMPHAFSRQPATHRSGRFPRSRALLLASLLAAGLASLPAWAAAPATRTAQAAPEGSSRAAVQLEKSRPRGNLLATDRTDLPAVPLSEDIMYRVLASEVSLQRGLVEPAYRTYLGLAQDTRDPRFAQRATEIAFLTRSPSQALTAARLWVELAPTSMPARQVQQLLMVATGQWSEVEPMLQAQLNKVSPGQRAEAILQLQQQMSKSNDPAGAVSALQRLTTHDAQRPETHLALARAKVVAKDNTGALSELDTALKLRPGYEDAAILAAELRADSDPDAAISGLRTFLKAAPASIDGHLALARMYLVRNQNDQARAEFEALRKIAPTDPRIPLALGLLNLQQRQYDSAEQYLKEYVAQAAKSPSLSPEPGYQGLAQVAEEKRDYAGAITWLDKIAGASNGDGDGQVALAAGIKRAQLLGKLRRIDEAQQAFDELIADTEDVPDGPRRQALMDGIRQAEVGMLMDAKAYGRARARVNDLLRTSPDSVEYTYQLSMLEEHDGHYDNMETLLRKVIDLRPGQAIGYNALGYSLADRNIRLQEAQELLEKAVSLAPDDPYIADSLGWVKYRRGDLPAATDILRKAWAAAPQAEIGAHLGEVLWQSGKQDDARKVWTEAAKLDINDTTLRETLHRFSQPLPDAPTSAN”, the protein production entry was “failed”.

As for “MTMSLIAGVAAFVLTVLAMPHFITYYKIKKIGGQQMHEDVKQHLAKAGTPTMGGTVFLVVAILISLIFNFHVFTEGHPAYGATAGILFVILIYGIIGFLDDFLKIFHQINEGLKPWQKMALQIVAGLLFYFIHVLPSGTNSLAIGGLTIQLGVFYVLFVLFWIVGFSNAVNLTDGIDGLASVSVVISLIAYGIIAFVKGELAILTIIITMIGALLGFFVFNHKPAKVFMGDVGSLSLGAMLAVISIALRVEWTLLLIGVVYVLETASVMLQVSYFKYTKRKYGEGRRIFRMTPFHHHLELGGISGKGEKWSEWKVDAFLWTIGALASSITLWMVLGNVMK”, the protein production entry is given as “failed”.

For “MTNDFKKEKKEDYFVNLKAISTEVLQEKVQDNAWVIVDTRLNDAYNGWKLDGVKRGGHIKGAVDFSANWLSVYSDRKDEVLEQALKTKRIDLDKNIVLYDANGKDALVVADYLSKKGYKYLYKYDIKQWADDENLPMERYKNYQMIVPLEHHHHHH”, the protein production result is listed as “not failed”.

Turning to “MTNGGGGMSSGEGFRRRSSGEGFPAREFRWWVSGDRVFPRGFFGEGVQVGVPTVVSGEGVPAKVPGGDFSGKKVPAVVFRRVSSSDGGGRGSGGGGGGGSGLGW”, the protein production result was “failed”.

As for “MTNGKNPKEYSRQYVDEIAERADVVGYAPAIEYSFDRYTNNPVHEKIATIHDGEKLGDDAHVEVVVVDFFKKSDKGDKCYATKRTYAVIPDSDGDGTDALVYSGSLKSVSDIEEGYVTETDFTSKTVTYAKGDYAATELEHHHHHH”, the protein production result is “failed”.

Take “MTNIQALFERIAPLYDRLNDQLSFGLHHVWKQMAVDWLELPQGATALDLCCGTGDLTRLLARRVGRQGRVVGLDFAAAPLAIARQRSDHYPQIEWLQGDALAVPFAPQTFQGITIGYGLRNVVDIPQALREMFRLLVPGGRAAILDFSHPQTSALEQFQQWYLQQWVVPTARHYGLAAEYDYLWPSIQAFPTPPTLCALIQQAGFERVKHYPLLGGLMAITVAQKLEHHHHHH”: the protein production entry is reported as “failed”.

Regarding “MTNKGYFWVVASLVLASAAQVLMKSGMLALPSISMTHWPSLSTLMAGWPVVAVLVGIICYGLSMVCWFMVLRYLPLSRAYPLISLSYAVVYLAAVFLPWLNEPMSLRKNLGVLIILLGVWLVSRDAQATK”, the protein production result is reported as “failed”.

As to “MTNLGTAKNFWDATLYQDKHSFVWQYGEDLLQLLNPQPGEFILDLGCGTGQLTEKIAQSGAEVLGTDNAATMIEKARQNYPHLHFDVADARNFRVDKPLDAVFSNAMLHWVKEPEAAIASIHQALKSGGRFVAEFGGKGNIKYILEALYNALETLGIHNPQALNPWYFPSIGEYVNILEKQGFDVTYAALFNRPTTLAEGEFGMANWIQMFASAFLVGLTPDQQVQLIRKVEATLQDKLYHQESWTADYRRIRIVSIKAQ”, the protein production result is recorded as “not failed”.

Take “MTNLRKILLIPALIVVSVSSFFSCGVDRWPEYAHLTELDTWMYDIMQQNYLWYQYMPGYDEVNLFQDPATFLSKAKWDKDSYSFVDSVLEAPLPTYGFDYSLVKSQDNDTAYNALITYVIPESPAEKAGLQRGDWIMKVDTSYISKKYETQLLQGTIARELSMGVWKEVEEEPEEGEEVPEEPVMVYKVVPNGVTLDLGAAQSIEDQPVHKYKILTLDNGAKVGYLMYNSFTAGTNNDPEKYNNELRKVSTIFQEANVQATILDLRYNEGGSLDCVQLLATILVPNARMGTPMAYLEYNDKNLDKDATINFDQEVLKTGVNLNQNTLVAITSGTTAGAAEMLLTSLYKEEQAPNIIVMGSASKGQTVATEQFINETYRWSVNPVVCTVYNSDHDAGEDAFVLVPSDKFKISETSINGTTDYSQFLPFGNPKERMLSIAIQTLEGTYPPKDEDKEEETRSTKSIKIEKSVSSPASRRFAGGLRIK”: the protein production entry is “failed”.
